According to US20230159650A1 (SEOUL NATIONAL UNIVERSITY R AND DB FOUNDATION, published 2023):
Numbering of substitutions follows the chain as printed.

B1: DR5 where huDR5-CRD2 was mutated (Mutation huDR5-CRD2 Protein) (receptor)
chain: ITQQDLAPQQRAAPQQKRSSPSEGLCPPGHHISEDGRDCISCKYGQDYSTHWNDLLACLACTRCAAGEVELSPCTTTRNTVCQCEEGTFREEDSPEMCRKCRTGCPRGMVKVGDCTPWSDIECVHKESGIIIGVTVAAVVLIVAVFVCKSLLWKKVLPYLKGICSGGGGDPERVDRSSQRPGAEDNVLNEIVSILQPTQVPEQEMEVQEPAEPTGVNMLSPGESEHLLEPAEAERSQRRRLLVPANEGDPTETLRQCFDDFADLVPFDSWEPLMRKLGLMDNEIKVAKAEAAGHRDTLYTMLIKWVNKTGRDASVHTLLDALETLGERLAKQKIEDHLLSSGKFMYLEGNADSAMS
notes: Expressed in transfected mouse cells; also called huDR5-CRD2 mutant
B2: DR5 where huDR5-CRD3 was mutated (Mutation huDR5-CRD3 Protein) (receptor)
chain: B1 chain with A57F, A60R, A65D, A66S, S94A, E96A, R99A, R102A
notes: Expressed in transfected mouse cells; also called huDR5-CRD3 mutant

Molecular target: T1, human FasL where an immunoglobulin (IgG) is combined (huFasL-IgG) (human, UniProt P48023 134-281, limits assumed)
T1 construct: also called IgG-combined FasL; not shown: immunoglobulin (IgG) part
T1 sequence (looked up): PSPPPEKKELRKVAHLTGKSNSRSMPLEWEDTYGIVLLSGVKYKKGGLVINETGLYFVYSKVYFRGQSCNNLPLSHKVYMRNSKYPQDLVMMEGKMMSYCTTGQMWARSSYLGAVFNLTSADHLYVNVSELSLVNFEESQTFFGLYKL
Experiment: flow cytometry on transfected mouse cells
Protocol: After transfecting mutated huDR5 DNA to mouse cells and expressing each of DR5 where huDR5-CRD2 was mutated (Table 1, SEQ ID NO: 4), or DR5 where huDR5-CRD3 was mutated (Table 1, SEQ ID NO: 5), flow cytometry was performed using human FasL where an immunoglobulin (IgG) binding only to cells expressing huDR5 was combined (huFasL-IgG), and the result was shown in FIG. 8b.

| Binder | binding result |
| --- | --- |
| B1 | no binding |
| B2 | no binding |
